Measurements: patent US20100113304A1 (Pfizer, published 2010)

Molecular target: T1, biotin labeled hRAGE-Fc (human, UniProt Q15109 24-344, limits assumed, biotin labeled (site not stated))
T1 construct: Biotinylated in selections and HTRF; also called Biotin-labeled RAGE-Fc; biotinylated RAGE-FC; not shown: Fc part, not described
Experiment: HTRF competition on biotinylated hRAGE-Fc; scFv titrated; competitor Eu-cryptate-labeled parental XT-M4 antibody

T1 sequence (Q15109 24-344 limits assumed): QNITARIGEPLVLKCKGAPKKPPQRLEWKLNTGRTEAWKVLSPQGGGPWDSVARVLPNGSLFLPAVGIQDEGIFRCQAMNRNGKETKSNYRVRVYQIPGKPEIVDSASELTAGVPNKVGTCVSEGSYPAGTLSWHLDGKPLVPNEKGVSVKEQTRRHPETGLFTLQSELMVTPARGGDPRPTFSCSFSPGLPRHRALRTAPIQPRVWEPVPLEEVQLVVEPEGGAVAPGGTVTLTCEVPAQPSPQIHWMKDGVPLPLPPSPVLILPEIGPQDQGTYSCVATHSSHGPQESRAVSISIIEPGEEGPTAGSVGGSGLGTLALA

IC50 [nM] | Binder
1.31 | 3B4 scFv (scFv) DIQMTQSPSSLSASVGDRVTITCRASQDVGIYVNWFQQKPGKAPRRLIYRATNLADGVPSRFSGSRSGTDFTLTISSLQPEDFATYYCLEFDEHPLTFGGGTKVEIKDGGGSGGGGSGGGGSSEVQLVESGGGLVQPGGSLRLSCAASGFTFNNYWMTWVRQAPGKGLEWVASIDNSGDNTYYPDSVKDRFTISRDNAKNSLYLQMNSLRAEDTAVYYCARGGDIREGLRYWGQGTLVTVSS
1.46 | 6D5 scFv (scFv) DIQMTQSPSSLSASVGDRVTITCRASQDVGIYVNWFQQKPGKAPRRLIYRATNLADGVPSRFSGSRSGTDFTLTISSLQPEDFATYYCLEFDEHPLTFGGGTKVEIKDGGGSGGGGSGGGGSSEVQLVESGGGLVQPGGSLRLSCAASGFTFNNYWMTWVRQAPGKGLEWVASIDNSGDNTYYPDSVKDRFTISRDNAKNSLYLQMNSLRAEDTAVYYCARGGDIKVSLDQWGQGTLVTVSS
